Results taken from publication PMC10687090, “The dimerized pentraxin-like domain of the adhesion G protein–coupled receptor 112 (ADGRG4) suggests function in sensing mechanical forces” (The Journal of Biological Chemistry, 2023).

Key:
[1] = biological target: the molecule itself; assay: static light scattering; DynaPro NanoStar, 20 °C, quartz cuvette, several protein concentrations; molecular mass increased with protein concentration; no significant change of hydrodynamic radii and molecular mass in the presence of Ca2+; monomer to dimer
[2] = biological target: the molecule itself; assay: SAXS; concentration series 0.27-9.15 mg/mL, 3 to 5% glycerol added; KD by nonlinear regression of experimental Rg^2 versus concentration (Equation 4) with theoretical Rg of monomer and dimer for zero to two N-glycosylations; dimer to monomers
[3] = biological target: the molecule itself; assay: SAXS Guinier Rg, model with 1x N-glycosylation

B1: PTX-like domain of the human ADGRG4 (residues 1-240) (domain or fragment, UniProt Q8IZF6-1 28-240, looked up)
chain: LKGKKLDFFGRGDTYVSLIDTIPELSRFTACIDLVFMDDNSRYWMAFSYITNNALLGREDIDLGLAGDHQQLILYRLGKTFSIRHHLASFQWHTICLIWDGVKGKLELFLNKERILEVTDQPHNLTPHGTLFLGHFLKNESSEVKSMMRSFPGSLYYFQLWDHILENEEFMKCLDGNIVSWEEDVWLVNKIIPTVDRTLRCFVPENMTIQEKS
modifications: N-glycosylated (heterogeneous; putative N-glycosylation sites N166 and N233)
notes: signal peptide in the construct: human ADGRG4 (GPR112) residues 1-240, UniProt Q8IZF6-1; residues 1 to 25 are a signal peptide and are not present in the secreted protein; residues 26-162 and 176-231 are resolved in the crystal structure; Expected monomer mass printed as 30.5 kDa; also called G4-PTX; ADGRG4-PTX
B1 was tested, and the “stoichiometry N” value [1] was 2, the Kd [2] was 7 to 32 µM and the Kd [3] was 20 µM.
